Experimental data taken from PMC10515491, “Intrinsically Disordered Flanking Regions Increase the Affinity of a Transcriptional Coactivator Interaction across Vertebrates” (Biochemistry, 2023).

T1: D. rerio NCBD (nuclear coactivator binding domain of CBP), Trp variant (D. rerio)
T1 chain: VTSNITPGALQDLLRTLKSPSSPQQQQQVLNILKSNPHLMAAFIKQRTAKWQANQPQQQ

T2: S. purpuratus NCOA N-CID-C (CID with N- and C-terminal flanking regions) (S. purpuratus, UniProt A0A7M7N2F3 1037-1156)
T2 construct: Gly-Ser remains at the N-terminus after thrombin cleavage; the Uniprot entry W4YZZ7 was withdrawn; annotated in NCBI as neurogenic protein mastermind; also called long version; source: expression construct ordered from Genscript; not shown: 6 His-tagged lipo domain, N-terminal, cleaved
T2 sequence: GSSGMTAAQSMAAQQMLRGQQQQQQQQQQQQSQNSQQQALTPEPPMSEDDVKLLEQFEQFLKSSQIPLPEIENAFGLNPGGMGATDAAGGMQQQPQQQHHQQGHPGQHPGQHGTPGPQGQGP

T3: H. sapiens NCOA1 N-CID-C (H_sapiens_NCOA1_N-CID-C_885-1004) (H. sapiens, UniProt Q15788 885-1004)
T3 construct: Gly-Ser remains at the N-terminus after thrombin cleavage; also called CID with flanking regions; Src1; not shown: His6, N-terminal, cleaved; lipo domain, N-terminal, cleaved
T3 sequence: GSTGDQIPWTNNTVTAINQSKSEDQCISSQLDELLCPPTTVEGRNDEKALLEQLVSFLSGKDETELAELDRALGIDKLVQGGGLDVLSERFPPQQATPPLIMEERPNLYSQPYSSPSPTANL

T4: C. milii NCBD (nuclear coactivator binding domain of CBP), Trp variant, first four residues truncated (C. milii)
T4 chain: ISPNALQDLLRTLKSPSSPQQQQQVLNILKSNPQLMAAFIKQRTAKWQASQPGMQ

B1: H. sapiens CBP NCBD domain, Trp variant (H_sapiens_NCBD 2058-2116, Tyr2108 to Trp) (domain or fragment)
chain: GSPPRSISPSALQDLLRTLKSPSSPQQQQQVLNILKSNPQLMAAFIKQRTAKWVANQPGMQ
notes: Gly-Ser remains at the N-terminus after thrombin cleavage; Trp introduced at Tyr2108 for the kinetic studies; not shown: His6, N-terminal, cleaved; lipo domain, N-terminal, cleaved

What was measured:
[1] = target: S. purpuratus NCBD (nuclear coactivator binding domain of CBP), wild type (S. purpuratus); assay: ITC; MicroCal iTC200, 25 °C, 20 mM sodium phosphate pH 7.40, 150 mM NaCl
[2] = target: C. milii CBP NCBD domain, Trp variant (C_milli_NCBD 2031-2089) (Callorhinchus milii); assay: stopped-flow spectroscopy; Trp variant of NCBD of the same species mixed with CID or N-CID-C; kon from the slope of kobs against CID concentration; koff from displacement of the complex by an excess of wild-type NCBD (average of three experiments); Kd = koff/kon; 20 mM sodium phosphate pH 7.40, 150 mM NaCl, 4 °C; double exponential fit for human and C. milii NCOA3, the high kobs used for Kd
[3] = target: T1, D. rerio NCBD (nuclear coactivator …)
[4] = target: D. rerio CBP NCBD domain, Trp variant (D_rerio_NCBD 2064-2122) (Danio rerio); assay: stopped-flow spectroscopy; Trp variant of NCBD of the same species mixed with CID or N-CID-C; kon from the slope of kobs against CID concentration; koff from displacement of the complex by an excess of wild-type NCBD (average of three experiments); Kd = koff/kon; 20 mM sodium phosphate pH 7.40, 150 mM NaCl, 4 °C; double exponential fit for human and C. milii NCOA3, the high kobs used for Kd
[5] = target: T2, S. purpuratus NCOA N-CID-C (CID with N- …); assay: ITC; MicroCal iTC200, 25 °C, 20 mM sodium phosphate pH 7.40, 150 mM NaCl; details: both partners purified
[6] = target: T3, H. sapiens NCOA1 N-CID-C …; assay: stopped-flow spectroscopy; Trp variant of NCBD of the same species mixed with CID or N-CID-C; kon from the slope of kobs against CID concentration; koff from displacement of the complex by an excess of wild-type NCBD (average of three experiments); Kd = koff/kon; 20 mM sodium phosphate pH 7.40, 150 mM NaCl, 4 °C; double exponential fit for human and C. milii NCOA3, the high kobs used for Kd; details: both partners purified
[7] = target: H. sapiens NCBD (nuclear coactivator binding domain of CBP), Trp variant (H. sapiens, UniProt Q92793 2058-2116, a Trp was introduced at the position corresponding to Tyr2108 in human NCBD)
[8] = target: B1; assay: stopped-flow spectroscopy; Trp variant of NCBD of the same species mixed with CID or N-CID-C; kon from the slope of kobs against CID concentration; koff from displacement of the complex by an excess of wild-type NCBD (average of three experiments); Kd = koff/kon; 20 mM sodium phosphate pH 7.40, 150 mM NaCl, 4 °C; double exponential fit for human and C. milii NCOA3, the high kobs used for Kd; details: both partners purified
[9] = target: T4, C. milii NCBD (nuclear coactivator …)
[10] = target: T5, H. sapiens NCBD (nuclear coactivator binding domain of CBP), Trp variant (H. sapiens, UniProt Q92793 2058-2116, a Trp was introduced at the position corresponding to Tyr2108 in human NCBD); assay: stopped-flow spectroscopy; Trp variant of NCBD mixed with CID at varied concentration; kon from the slope of kobs, koff from displacement with excess wild-type NCBD, Kd = koff/kon; 20 mM sodium phosphate pH 7.40, 150 mM NaCl, 4 °C; details: both partners purified
T5 construct: Gly-Ser remains at the N-terminus after thrombin cleavage; also called human NCBD; Trp variant of NCBD; source: expression construct ordered from Genscript; not shown: 6 His-tagged lipo domain, N-terminal, cleaved

Kd [3] [nM] | Kd [4] [nM] | koff [4] [s⁻¹] | Molecule | other results
– | – | – | S. purpuratus NCOA CID (minimal region) (domain or fragment) | Kd [1]: 5000 nM
– | – | – | C. milii NCOA3 N-CID-C (C_milli_NCOA3_N-CID-C_1037-1156) (domain or fragment) | Kd [2]: 88 nM; koff [2]: 3.78 s⁻¹
– | – | – | C. milii NCOA3 CID (C_milli_NCOA3_CID_1076-1117) (domain or fragment) | Kd [2]: 260 nM; koff [2]: 6.53 s⁻¹
15 | 14.7 | 0.716 | D. rerio NCOA1 N-CID-C (CID with N- and C-terminal flanking regions) (domain or fragment) GSEPMTFDNSLANQTQAPLSSPQEQCVPCPLDEMLCPPTTPEGRNDEKALLEQLVTFLSHTDESELAELDRALGIDKIVQSGCLEPVTQTPFPQSQPPTPVPLDPKLPSYPSQFPTSPSQFP | –
44 | 44.1 | 1.54 | GSEGRNDEKALLEQLVTFLSHTDESELAELDRALGIDKIVQSGC (domain or fragment) [D. rerio NCOA1 CID (minimal region)] | –
– | – | – | S. purpuratus NCBD (nuclear coactivator binding domain of CBP), wild type (domain or fragment, Gly-Ser remains at the N-terminus after thrombin cleavage; CBP, S. purpuratus (purple sea urchin), NCBD domain, residues 2316-2374 of Uniprot A0A7M7HNR9; the Trp variant is told only for the stopped-flow experiments; source: expression construct ordered from Genscript; not shown: 6 His-tagged lipo domain, N-terminal, cleaved) GSQRNNAPQQALQQLLQTLKSPHSPQQQKQVLTILKSNPQLMAAFIKQRSEHQQRMQQQQQ | Kd [5]: 8000 nM
150 | 146 | 5.06 | GPGSASEGPADEGALLSQLYSALKDFDGLEEIDRALGIPALVGQAQ (domain or fragment) [D. rerio NCOA2 CID (minimal region)] | –
– | – | – | B1 | Kd [6]: 6.02 nM; koff [6]: 0.436 ± 0.0476 s⁻¹
– | – | – | GSEGRNDEKALLEQLVSFLSGKDETELAELDRALGIDKLVQGGG (domain or fragment, Gly-Ser remains at the N-terminus after thrombin cleavage; also called Src1; not shown: His6, N-terminal, cleaved; lipo domain, N-terminal, cleaved) [H. sapiens NCOA1 CID (H_sapiens_NCOA1_CID_924-965)] | Kd [7]: 56 nM; Kd [8]: 55.7 nM; koff [8]: 1.59 ± 0.153 s⁻¹
82 | 81.9 | 3.51 | D. rerio NCOA2 N-CID-C (CID with N- and C-terminal flanking regions) (domain or fragment) GPGSPPNQTAPWPDSVMPIEPVPFGNQSSSMYGGSQEDVLCPPASEGPADEGALLSQLYSALKDFDGLEEIDRALGIPALVGQAQPVEQDQFPGQDPSMMMDQKPPMYGQQQYASSPANMQQAG | –
– | – | – | C. milii NCOA3 N-CID-C (CID with N- and C-terminal flanking regions) (domain or fragment) QTTSWSDNVLQMEQVHSGGQGRQPFGGSLDDLLCPPTTAEAQSDEKALLDQLDTLLSNADEMGLEEIDRALGIPDLISQVQPLEAHADQFSVQDTALMLEQKAMYGQQFNSQAGPMQGCY | Kd [9]: 88 nM
– | – | – | H. sapiens NCOA1 N-CID-C (CID with N- and C-terminal flanking regions) (domain or fragment, Gly-Ser remains at the N-terminus after thrombin cleavage; also called NCOA1 (Src1); source: expression construct ordered from Genscript; not shown: 6 His-tagged lipo domain, N-terminal, cleaved) GSTGDQIPWTNNTVTAINQSKSEDQCISSQLDELLCPPTTVEGRNDEKALLEQLVSFLSGKDETELAELDRALGIDKLVQGGGLDVLSERFPPQQATPPLIMEERPNLYSQPYSSPSPTANL | Kd [7]: 6 nM; fold increase in affinity with flanking regions against the CID without them [10]: 9 fold
– | – | – | EAQSDEKALLDQLDTLLSNADEMGLEEIDRALGIPDLISQVQ (domain or fragment) [C. milii NCOA3 CID (minimal region)] | Kd [9]: 260 nM
300 | 300 | 7.29 | GSEGQSDERALLDQLDSLLNNTDVIALEEIDRALGIPDLINQGH (domain or fragment) [D. rerio NCOA3 CID (minimal region)] | –
170 | 168 | 5.34 | D. rerio NCOA3 N-CID-C (CID with N- and C-terminal flanking regions) (domain or fragment) GSPPQSPSWPDSGMGMEGPPSANRLPINSPLDELLAPPSTSEGQSDERALLDQLDSLLNNTDVIALEEIDRALGIPDLINQGHSSDQPPPSDPFSGPCLGPDSSMGMEPPKAMYGQGYPGPP | –
